Reference: PMC5222566, “The Ciliopathy-Associated Cep104 Protein Interacts with Tubulin and Nek1 Kinase” (Structure(London, England:1993), 2017)

Target: tubulin (Cytoskeleton) (UniProt P02550 1-451)
Experiment: SEC-MALS; TOG protein mixed with reconstituted tubulin, each ~42 uM, 1:1; 25 mM Tris-HCl pH 7.5, 100 mM NaCl, 1 mM MgCl2, 1 mM EGTA
Settings: both partners purified

stoichiometry N: 1
B1: human Cep104 TOG domain (Cep104^367-685), wild type (domain or fragment, UniProt O60308 367-685, looked up)
chain: DPHPKINAESLPYDERPLPAIRKHYGEAVVEPEMSNADISDARRGGMLGEPEPLTEKALREASSAIDVLGETLVAEAYCKTWSYREDALLALSKKLMEMPVGTPKEDLKNTLRASVFLVRRAIKDIVTSVFQASLKLLKMIITQYIPKHKLSKLETAHCVERTIPVLLTRTGDSSARLRVTAANFIQEMALFKEVKSLQIIPSYLVQPLKANSSVHLAMSQMGLLARLLKDLGTGSSGFTIDNVMKFSVSALEHRVYEVRETAVRIILDMYRQHQASILEYLPPDDSNTRRNILYKTIFEGFAKIDGRATDAEMRARRK
notes: The crystallised TOG construct (392-676, PDB 5LPH) has other limits; also called WT TOG; source: E. coli Rosetta, purified (Ni-NTA, PreScission cleavage, HiTrap SP); not shown: His6, N-terminal, cleaved
